Assays:
MMP-9 = target: T1, MMP-9 (Homo sapiens, UniProt P14780); experiment: In vitro enzymatic validation of FIB One with recombinant MMP-9 (plate reader); type: biochemical; details: MMP 30 nM, n=3 in duplicate
T1 construct: recombinant MMPs (Enzo Life Sciences) (active domains of MMP-1, MMP-2, MMP-3, MMP-7, MMP-8, MMP-9, MMP-10, MMP-11, MMP-12, and MMP-13); purchased Enzo Life Sciences
Protocol: To determine the enzymatic specificity of FIB One, the probe was incubated at a concentration of 1 μM (unless otherwise stated) with the recombinant MMPs (Enzo Life Sciences) (active domains of MMP-1, MMP-2, MMP-3, MMP-7, MMP-8, MMP-9, MMP-10, MMP-11, MMP-12, and MMP-13, all at 30 nM), thrombin (Sigma Aldrich) (5 U/mL), factor Xa (Sigma Aldrich) (500 nM), plasmin (Sigma Aldrich) (30 nM), and human neutrophil elastase (30 nM). Where appropriate, enzymes were incubated with specific inhibitors for 30 min at 37°C prior to addition of FIB One. […] Enzyme free reactions served as a control. Enzymatic reactions were performed in MMP buffer (10 mM CaCl2, 6.1 g Tris-HCl, 8.6 g NaCl per litre, pH 7.5) in a final volume of 20 μL. Reactions were performed in duplicate in 384-well plates (Life Technologies) with optically clear plate seals (Thermo Scientific) and repeated thrice (independently). Fluorescence signal was measured for up to 60 min, ex/em 485/528 nm using microplate reader (BioTek Synergy H1 multimode reader). Data were normalised to buffer alone and are presented as fold-change in signal (relative fluorescent units, RFU) compared to enzyme-free controls. Data were plotted using Prism 7 (GraphPad Software Inc., La Jolla, CA, USA).

patients = experiment: Laboratory results in patients after FIB One delivery; type: in vivo, human
Text: Table S1: Laboratory results. […] Statistical analysis using paired t-test. (Hb= haemoglobin; WCC= white cell count; ALT- alanine transaminase; CRP= C Reactive Protein).

[1] = tested on: primary human lung tissue; experiment: Ex vivo fibre-based (FCFM) imaging of human lung tissue with FIB One; details: FIB One 1 μM, imaged 10 min, FCFM 488 nm excitation, n=9
Protocol: Human lung tissue samples (lung tumour and noncancerous adjacent tissue) were obtained following surgical resection and stored at -80° C until use. Processing for multiwell plate reader assay or zymography analysis was conducted as follows: 1 mm×4 mm sections were homogenised in 400 μL MMP buffer in Precellys 2.8 mm ceramic bead tubes (VWR) using a Pecellys 24 homogeniser. Homogenised tissue was adjusted to 4 mg mL^-1 protein (determined by a Pierce BCA Total Protein Assay Kit (Thermo Fisher Scientific), following the manufacturer’s instructions). Multiwell plate reader assays were performed as previously described, replacing the MMP buffer and MMP enzymes for the homogenised and protein-adjusted lung tissue.
For ex vivo imaging, human lung tissue was sliced into 1 mm×4 mm sections and placed in the wells of a 96-well plate with 100 μL of MMP buffer and 30 nM MMP-13. […] The fluorescence for each sample was calculated by determining the average fluorescence per frame for each time point. […] Five independent patient specimens were collected and analysed. RFUs collected from off-target frames (showing motion artefact or absence of any fluorescence) were omitted during analysis.

[2] = tested on: stimulated human neutrophils; experiment: FIB One cleavage in supernatant from stimulated neutrophils; type: cell-based; details: FIB One 1 μM, 10 min incubation with neutrophil supernatant
Protocol: Neutrophils were isolated from the blood of healthy human volunteers as previously described. The number of retrieved neutrophils was determined with NucleoCounter NC-1000 (Chemo Metec). Neutrophils were resuspended at a concentration of 20×10^6 mL^-1 in 0.9% NaCl with 0.9 mM CaCl2. Cells were incubated for 30 min at 37°C. Cells to be stimulated were subsequently activated with 5 μM calcium ionophore A23187 (Tocris Bioscience) for 30 min at 37°C. Neutrophils were harvested by centrifugation at 400 x g for 5 min. Supernatants were removed and stored. Plate reader assays were performed as described above, with the MMP buffer replaced with neutrophil supernatant. All experiments were carried out in duplicate using three independent donors (one donor per independent repeat). Data were normalised by background subtraction of intrinsic fluorescence.

[3] = tested on: MMP activity in the alveolar space; experiment: In vivo assessment of FIB One and AZD1236 with TLBC in patients; design: species or system human; details: 500 μL AZD1236 14 μg/mL predelivered, then 500 μL FIB One 20 μg/mL, nine patients
Protocol: In subsequent testing the Miniaturized Alveoflex™-TLBC combination replaced the Alveoflex™ fibre. The entire apparatus was passed transbronchially to allow direct alveolar imaging before localised delivery of agents. Once transbronchial pass was accomplished, baseline lung imaging was recorded for at least 30 sec. A 500 μL microdose of either AZD1236 (14 μg/mL) or sterile PBS (control) was administered under direct observation, and further imaging was obtained for >60 sec. 500 μL of FIB One (20 μg/mL) (delivered only after at least 60s to allow MMP inhibition) was then dosed to the same area with a further 90-120 sec of imaging captured. If considerable movement due to breathing or coughing was encountered, imaging was halted and a new segment identified. Up to 6 segments of interest were investigated per patient determined by patient tolerance.
All video sequences were assessed by two clinicians with clinical experience of pulmonary endomicroscopy. Frames with excessive movement or lack of recognizable alveolar structure were removed from analysis. Videos were assessed to ensure stability throughout the imaging procedure. […] All video files were analysed using the Cellvizio® Viewer image processing software from Mauna Kea Technologies, Paris. […] The median RFU was calculated for each category and used as a comparative value between groups.

T1 sequence (P14780 107-444 limits assumed): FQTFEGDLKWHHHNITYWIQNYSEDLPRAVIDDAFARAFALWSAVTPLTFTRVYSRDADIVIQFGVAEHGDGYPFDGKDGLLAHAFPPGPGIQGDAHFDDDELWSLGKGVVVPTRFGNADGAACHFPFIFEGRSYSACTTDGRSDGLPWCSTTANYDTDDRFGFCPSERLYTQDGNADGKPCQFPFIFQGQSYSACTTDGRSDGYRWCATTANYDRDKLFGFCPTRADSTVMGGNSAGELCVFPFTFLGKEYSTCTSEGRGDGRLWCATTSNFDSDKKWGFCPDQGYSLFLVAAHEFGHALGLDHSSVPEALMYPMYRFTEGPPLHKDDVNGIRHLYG

Substance | fluorescent amplification of FIB One on exposure to enzyme (MMP-9; FIB One 1 μM, MMP buffer pH 7.5, ex/em 485/528 nm, fold-change vs enzyme-free control) | signal amplification compared with analogous monomeric linear structure (FRET-monomer) (MMP-9; probes 1 µM, 10 min incubation) | Potassium (patients; blood 4-6 hours post FIB One delivery, mean (sd), baseline 4.3 (0.4)) | Urea (patients; blood 4-6 hours post FIB One delivery, mean (sd), baseline 4.6 (1.3)) | CRP (patients; blood 4-6 hours post FIB One delivery, mean (sd), baseline 5.4 (8.1)) | WCC (patients; blood 4-6 hours post FIB One delivery, mean (sd), baseline 7.6 (1.1), p <0.0001) | Bilirubin (patients; blood 4-6 hours post FIB One delivery, mean (sd), baseline 12.5 (5.3)) | ALT (patients; blood 4-6 hours post FIB One delivery, mean (sd), baseline 25.2 (18.2)) | Creatinine (patients; blood 4-6 hours post FIB One delivery, mean (sd), baseline 77.5 (11.5)) | Sodium (patients; blood 4-6 hours post FIB One delivery, mean (sd), baseline 138.9 (2.7), p 0.01) | Hb (patients; blood 4-6 hours post FIB One delivery, mean (sd), baseline 148.6 (11.3), p 0.0002) [g/L] | Platelets (patients; blood 4-6 hours post FIB One delivery, mean (sd), baseline 221.5 (53.2)) | clinically significant alterations of laboratory results (patients; pre procedure vs 4-6 hours post FIB One delivery) | cleavage of FIB One [1] | cleavage of FIB One [2] | drug-target engagement within the alveolar space [3]
(Pro-Phe-Gly-Nle-Lys-βAla)3 [FIB One] | rapid and specific fluorescent amplification | improved signal amplification | 4.2 (0.4) mmol/L | 4.7 (1.1) mmol/L | 5.2 (8.1) mg/L | 10.9 (2.9) x10^9/L | 12.4 (4.6) umol/L | 23.8 (15.2) IU/L | 77.3 (12.1) umol/L | 137.7 (3.2) mmol/L | 143 | 221.2 (52.6) x10^9/L | no clinically significant alterations | cleaved | cleaved | –
AZD1236 | – | – | – | – | – | – | – | – | – | – | – | – | – | – | – | in situ in vivo drug-target engagement

Reference: article PMC10530652 (BME Frontiers, 2021)
